This passage reports formation of RFC results from paper PMC9953321.

For the test, the target named is eRF1 (not stated (S. cerevisiae or human protein prepared)) (UniProt P12385).
Chain of UniProt P12385 (P12385 whole entry): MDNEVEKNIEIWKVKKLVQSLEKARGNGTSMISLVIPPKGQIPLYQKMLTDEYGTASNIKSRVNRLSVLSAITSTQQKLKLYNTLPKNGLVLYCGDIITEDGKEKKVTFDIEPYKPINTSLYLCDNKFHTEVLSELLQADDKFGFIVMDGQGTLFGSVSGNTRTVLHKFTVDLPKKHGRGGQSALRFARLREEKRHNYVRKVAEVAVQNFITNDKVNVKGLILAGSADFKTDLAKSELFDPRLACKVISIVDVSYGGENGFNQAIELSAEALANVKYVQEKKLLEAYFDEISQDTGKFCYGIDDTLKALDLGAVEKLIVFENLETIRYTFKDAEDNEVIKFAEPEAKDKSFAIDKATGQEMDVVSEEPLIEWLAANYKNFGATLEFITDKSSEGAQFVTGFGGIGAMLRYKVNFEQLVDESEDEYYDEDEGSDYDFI

Chain of eRF3 (P05453 whole entry): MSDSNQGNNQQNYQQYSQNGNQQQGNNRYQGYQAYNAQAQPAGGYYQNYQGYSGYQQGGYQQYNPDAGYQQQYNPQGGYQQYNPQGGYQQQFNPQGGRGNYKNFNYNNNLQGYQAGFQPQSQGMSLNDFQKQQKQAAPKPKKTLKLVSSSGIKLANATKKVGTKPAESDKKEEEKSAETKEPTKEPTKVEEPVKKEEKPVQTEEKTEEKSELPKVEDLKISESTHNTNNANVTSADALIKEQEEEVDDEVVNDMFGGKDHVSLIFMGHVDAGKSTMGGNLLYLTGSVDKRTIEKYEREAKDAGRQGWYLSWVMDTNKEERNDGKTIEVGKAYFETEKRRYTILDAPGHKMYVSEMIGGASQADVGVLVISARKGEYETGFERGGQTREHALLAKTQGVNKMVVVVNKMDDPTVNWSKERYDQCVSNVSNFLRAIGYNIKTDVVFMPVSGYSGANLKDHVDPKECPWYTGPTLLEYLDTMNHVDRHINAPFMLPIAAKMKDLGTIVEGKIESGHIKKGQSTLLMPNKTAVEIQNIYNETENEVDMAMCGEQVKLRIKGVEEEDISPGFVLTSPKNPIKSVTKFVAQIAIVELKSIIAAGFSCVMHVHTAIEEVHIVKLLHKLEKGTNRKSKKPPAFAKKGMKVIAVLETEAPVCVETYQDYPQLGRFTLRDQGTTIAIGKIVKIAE

Regarding “eRF3 (from UniProt P05453 1-685) (natural protein)”, the formation of RFC at constant 0.8 µM eRF3 with 0.01 to 0.4 µM eRF1 ('early experiments' of the termination assay; how it was determined is not told) was > 90%.
